The test system of the data set is Nc1ncnc2c1ncn2[C@@H]1O[C@H](COP(=O)(O)OP(=O)(O)OP(=O)(O)O)[C@@H](O)[C@H]1O. The experiment in a line: Omnia kinase assay. It counts as biochemical, Homo sapiens. The settings on record: Sox peptide co-substrate, pH 7.5, 25 mM MgCl2, 25 °C.

Regarding CLK3 (R134-T484) (Homo sapiens), the Km (usually the substrate concentration at which the rate is half of its maximum) came to 58.9 ± 20.3 µM.
For CLK3 (R134-T484) (Homo sapiens; A319V), the Km was determined as 8.6 ± 4.2 µM.

Source of the values: doi:10.1101/2020.07.01.182642v1.
